B1: 1991 2B9c (peptide)
peptide: KLSSIESDV

Key:
[1] = molecular target: N-type calcium channels in cultured mouse dorsal root ganglion (DRG) neurons (Swiss mice) (UniProt O55017); assay: cell-based or functional assay
[2] = molecular target: N-type Ca channels (receptor binding screen of Example 1)
IL-8RB = IL-8RB (UniProt P25025); assay: competitive radioligand binding; 10 µM unlabelled Tat-NR2B9c; competitor labeled IL-8
IL-8RB, sequence (P25025 whole entry): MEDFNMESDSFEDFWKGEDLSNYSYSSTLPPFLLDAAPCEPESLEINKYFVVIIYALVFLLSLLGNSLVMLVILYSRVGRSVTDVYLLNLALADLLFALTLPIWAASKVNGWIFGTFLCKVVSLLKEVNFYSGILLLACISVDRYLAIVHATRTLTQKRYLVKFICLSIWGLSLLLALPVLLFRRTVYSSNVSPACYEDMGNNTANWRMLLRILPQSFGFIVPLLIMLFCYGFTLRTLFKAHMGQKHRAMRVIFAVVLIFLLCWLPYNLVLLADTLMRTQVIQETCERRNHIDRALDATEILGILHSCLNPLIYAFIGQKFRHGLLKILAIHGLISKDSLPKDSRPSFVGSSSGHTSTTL

Row | Molecule | Ca^2+ current shown as a percentage, peptide at 100 µM [1] | % inhibition of labeled ligand binding [2] | % inhibition of labeled ligand binding (IL-8RB)
1 | 1992 Tat-NR2B9c-AA (peptide) | 74% | – | –
2 | 1993 F-Tat-NR2B9c (peptide) | 91% | – | –
3 | 1987 D-Tat-NR2B9c (peptide) | 82% | – | –
4 | 1990 TAT (peptide) | 57% | – | –
5 | Tat-NR2B9c (peptide) | – | 100% | 80%
6 | B1 | 94% | – | –

From US20150018283A1
